B1: 116 (protein, listed as Streptomyces netropsis)
chain: MPDDPVDVLDLDTKARLLSGQDMWSLPAVPRIGLRSIVMSDGPVGVRGVRWTADDPSLALPSPTALAATWDPALARRVGRLLAAEARRKGVHVLLAPTVNLHRSPLGGRHFEAYSEDPYLTARIGTGYVRGVQDGGVAAVVKHFVANDAETERFTVNNKVSARALRELYLAPFEAIVKDARPWGVMAAYNQVNGVTMTEHGHLQNDVLRGEWGFDGIVVSDWLAARDTVRAALGGLDVAMPGPVTVYGPALAAAVRAGDVPESVVDDAVRRVLRLADRVGALGEATRARPSAPDGRALAREVAARSFVLVRNAPVRGAPALPLDPAPGLRVALLGGAARDARILGGGSAQVFPARVVSPLDGLRAALPEGAVTYAVGAEPGDELLPAGAGFTLRAVCRDAAGRMLGEERMPSGMVQWLGDLPAGVGYEALRTVELTGTFTPRESGPHVFGTKGVGAFRLVVGGRTLFDGEQGADHADPFEAFLGSPVERGRVVLAAGTAVEVSLTCVVAEPDGAPIEAVGFCLLHREPERDAEELLAEAVAVAASADAAVVVVATTERVESEGFDRTTLALPGRQDELVARVAAVSPRTVVVVNSGSPVELPWRDDVAAVLLGWFPGQEAGGALADVLLGGCEPGGRLPTTWPVRLADAPVTRVAPVGGELAYAEGLFIGYRAWEKARATPAYAFGHGLGYTDWSYETLDMGGTGTARVRVRNTGSRPGREVVQVYLAVPPGDRAGRPVRRLAGFASVEAGPGETVEAVVALDPRAFEVWDDEAAGWRRIPGTYTAEAGRSIADRRLTAPVEVA
B2: 325 (protein, listed as Ilumatobacter coccineus)
chain: MTGTSTGARRGIICGVIDIDAALNALSLADKCRLVAGETNWRTKAFPEAGIPQLKMSDGPTGIRGEGHGSAGTPGVAVPAGITLGASWDPDLLGEIGDLLGREAVRKRAHVLLGPTVNLHRTPIGGRTFECYSEDPELSGALAASYVRAVQRHDVAVTVKHFVCNDTEIDRMTVDVDVDERPLRELYLRPFERAVKEGGAWGIMTAYNRVAGEFAAQNRRLLTDILRGEWGFDGFAVSDWFGVHEPVGAANAGLTLEMPAPVRVYGDRLLAAIEAGSVTEETVDGLVRDLLGVMNRTKADERNCDEPELSIDDPAERALTRRAAIGGTVLLRNEPIDSSGHPVLPVALDGLASMAVIGPNAVIDRSMGGGSASLTPFDHRTLLDALSDRVGPDTDVRYEPGVRIDRLTPIVRSARLRTPDGADGLRLEYVNGTDWDAPATIDTVTSSSMIRFFGTTPDEIDATAFGARVSGSFVPEIDGPHEIGVVSTGPVTMTARTGDGDPIVVVDDPDMLLPRTREFFGYGSEESVATVECRAGEPVHLEVKWRTSAENGFAALRIGVRPPEPSDLIDRAVAAAAEADVAVVVVGTNDEWETEGFDREVMSLPGRQDELVERVVAANPNTVVVVNAGSPVSMDWAADDHPRPAAAIVTSFFAGQEQAEAMVDVLTGVADPAGRLPITYPQRLADTPAFEHHEPVRSAGRPPQQRYAEGLFIGHRHYEANDVAPRFWLGHGLSYGSVEWSTPTASRTSDTAASLDDSPIVVSLSLTNTSDRDATSVVQCYVAPIAPSVERPVRELKAWAKESLPAQARRDVSIELGSSAFRHWDEESGAWKVEPGEYDIVVATSADPDDEHERLRITIT
B3: 240 (protein, listed as Acidipropionibacterium acidipropionici)
chain: MTELTDLPQYLLIRLLSGADDWRTVAAGEVGVRSLHLSDGPHGLRVPDVKGGSLPATCFPTAVTLGASWDRDLAEEVGGALAVEAGALGVDVVLGPGMNIKRHPLGGRNFEYLSEDPVVSGELAAAMVRGIQGRGVAACVKHFAVNNQETMRLCVDAVVDERTLHEIYLAAFETVVRTARPAAVMASYNEINGTAATTNRSLITEVLRGRWGFDGLVMSDWGAVWDRVAALEAGLDLEMPSSAGAFDRSVAAALDSGRLGLDAVLTSVSRLVGLQNRISPPRIDRIPADEHDALARRAATAGTVLAANDGILPLAAGSKVAVIGAFAARPRYQGSGSSQVNPTRVTGLLEALGAKDVEVGYARGYDPEEQRTDAVLVAEAAELAAASDVAVVVTGPPEELESEGYDRTGMDLPAQHDALVRAVLAANPRTVIVVCSGSPVALPWADRAAAVVLAGLGGQAGGGALADVLVGDAEPGGRLAETWPHDLSEVASDPWFPGTGAMVQYREGSAIGYRHTATNGVEPAFCFGHGLSYTRFDWRDAVLTEPWIVAGDGLSVDVEVANVGDRAGSDVVQVYLSDRTGVVSRPRRWLAGFAKVRLEAGQSRRVQVAVGARELGFWDVEKHDWVVPSGHFDVELGRSAHDIVATLDLVVSEGADHAPERAWTPLIAEDDEAFAARLGHEIPRPAATTPFTARSTLGQVRHTPLGGLLHAAAMRRLAAGVRDPRFRRMMEHTVDELPLRNLPSMTKGLVPLESVSLIVDVLNGAPDEILRRSFGGALGLGRGVVDAGRGLWGELSSRIGRLGR
B4: 9 (protein, listed as Streptomyces rubrolavendulae)
chain: MTADEAVEAALGALDLDTKARLLAGQDMWTLPAVPAVGLASLVMSDGPVGVRGVRWTADDPSVTLPSPTALAACWDPELARRAGRLLAQEARRKGVHVVLAPTVNLHRSPLGGRHFEAYSEDPYLTAETGAACVRGIQDGGVAATVKHFVANDAETDRFTVDNTVPPRALRELYLAPFEAIVRCARPWALMAAYNQVNGVTMTENRHLQTEVLRDAWGFDGVVVSDWFAARSTTGALVGGLDVAMPGPHTVYGDALAAAVRAGDVDEALVDRSVRRVLRLAARVGALEGAEPAVPSPPAHVDGEALAREIAHRSFVLVRNECGALPLDPARSRRVALVGAAARDARVLGGGSAHVFPARTVSPLDGLAAALPEGTELVHARGADLSGEPAPAGPGFALRAVCRDAEGTVLADVPLPSGQIQWIGADLPGGVTHEALHTVEVTGTYTPREGGAHGFGTRGVGAFTLTVGGRVLYDGTREAEPAGDPFEAFAGTPAEHGAADLAEGVPVEVSLRHTVDRDRPAPLPAVVFSLLHRPPRRDPDELIAEAVEAARGADAAVVVVATTERVESEGFDRADLRLPGRQDDLVRAVAAANPRTVVVVNAGAPVEMPWRDDVAAVLLTWFPGQEGGAALADVLLGAEEPGGRLPTTWPAALADAPVTAVTPVDGELRYEEGPFIGYRAWDRAPGGPAPAYPFGHGLGYTTWEYESLVVTPATARVRVRNTGTRPGREVIQLYVAPRADLAERPARWLVGFASVTAGPGARAEAEIRFAPRPFDVWDEEAGAWTAVPGQYEIRAGRSLTDTRLTVTLELD
B5: 133 (protein, listed as Aquimixticola soesokkakensis)
chain: MTDSTATPPDPIAAKLTFARGRDYWTTQAAPEIGLRALRFADGPHGLRVQDDENPDHLGLERSAPATCFPPAVTLASSWDAALIEEVGAALGREARAAGVDVVLGPGLNLKRSPLCGRNFEYYSEDPMLSGLLAGASARGIQSVGVGACLKHFAANSQEGDRNRISADIDERSLRELYLRNFQLALEASGAWSIMTSYNRINGLHASQDPWLLTQVLREEWGFDGLVISDWGGVYDPVAALKAGMDLRMPGGALDDRLIAAHARGEIAEGDLDRVIANTTRLAERTRPRDTDVPPDVEAHHALVRRAAAESSVLLKNDGVLPLDPARYPKVAILGELARTPRIQGSGSSRVHPRRVVAPLDVLRERLAQSGAQVAFAPAYGLQNGPADAALITEALQVARDADIVLLFSGLTDAAEAEGSDRTHIDLPDQQLTLLAALADCDTPLVVSLANGAVVRSTQWRDTAQAIVEFWLSGQAHGETVADVLLGDVPPAGRLAQTIPRRLQDTPAFLDFPGEHRHVRHSEGLHIGYRWYDARDLAVDYPFGHGLSYTSFDYEELEIDVRASDDDIAFVARLTLRNSGARAGSEVVQLYASDPSTAYQTPPRELRGWQKVHLEAGESCAVSIPVKRAHLGHWHSGLKRWVFAGGPMTLHVGASSRDLRLTCETELHGEALPVVLTPWSLFGEWMQHPVMGPRIEALFASRGGVKGRAGDLLSDPAGRNTVYINPLAMLAQFPGVPLDQSDLETLCAEAAALA
B6: 338 (protein, listed as Hungateiclostridium thermocellum)
chain: MAVDIKKIIKQMTLEEKAGLCSGLDFWHTKPVERLGIPSIMMTDGPHGLRKQREDAEIADINNSVPATCFPSAAGLACSWDRELVERVGAALGEECQAENVSILLGPGANIKRSPLCGRNFEYFSEDPYLSSELAASHIKGVQSQGVGACLKHFAANNQEHRRMTVDTIVDERTLREIYFASFENAVKKARPWVVMCAYNKLNGEYCSENRYLLTEVLKNEWMHDGFVVSDWGAVNDRVSGLDAGLDLEMPTSHGITDKKIVEAVKSGKLSENILNRAVERILKVIFMALENKKENAQYDKDAHHRLARQAAAESMVLLKNEDDVLPLKKSGTIALIGAFVKKPRYQGSGSSHITPTRLDDIYEEIKKAGGDKVNLVYSEGYRLENDGIDEELINEAKKAASSSDVAVVFAGLPDEYESEGFDRTHMSIPENQNRLIEAVAEVQSNIVVVLLNGSPVEMPWIDKVKSVLEAYLGGQALGGALADVLFGEVNPSGKLAETFPVKLSHNPSYLNFPGEDDRVEYKEGLFVGYRYYDTKGIEPLFPFGHGLSYTKFEYSDISVDKKDVSDNSIINVSVKVKNVGKMAGKEIVQLYVKDVKSSVRRPEKELKGFEKVFLNPGEEKTVTFTLDKRAFAYYNTQIKDWHVESGEFLILIGRSSRDIVLKESVRVNSTVKIRKRFTVNSAVEDVMSDSSAAAVLGPVLKEITDALQIDMDNAHDMMAANIKNMPLRSLVGYSQGRLSEEMLEELVDKINNVE

What was measured:
Type in all cases: biochemical, Quillaja saponaria
[1] = Experiment 4-4: screening of glucosidases for deglycosylation of QS-18 in crude bark extract (1 in 20 dilution) to QS-21; conditions: CBE 1 in 20 dilution, pH 6, 25 degC, 18 hours; % conversion of Middle Peak by UV HPLC
Protocol: Lysates were prepared as in Experiment 4-2.
Crude bark extract (CBE) was adjusted to pH 6 by dropwise addition of 2M NaOH with stirring. 25 uL of clarified lysate was transferred to a reaction plate, 22.5 ul of 100 mM potassium phosphate buffer pH 6 was added, 2.5 ul CBE at pH 6 was added. Reaction plates were sealed, incubated at 25 degC with shaking for 18 hours, then quenched by addition of 50 uL acetonitrile (MeCN). Quenched reaction plates were re-sealed and incubated at 20 degC with shaking for 10 min. The reaction plates were centrifuged (10 min, 4 degC) and analysed by UV HPLC with the method below:
Three key peaks of interest are apparent using this chromatography: Left Peak (retention time approximately 2.30-2.35 min) comprising mainly QS-17 family components; Middle Peak (retention time approximately 2.37-2.42 min) comprising mainly QS-18 family components and desglucosyl-QS-17 family components; and Right Peak (retention time approximately 2.44-2.50 min) comprising mainly QS-21 family components. Peak identity was supported by MS/MS.
Enzyme activity is calculated as the % conversion of the Middle Peak present in the crude bark extract: […]

[2] = Experiment 4-1: screening of glucosidases for deglycosylation with purified QS-18 (0.04 mg/ml) at pH 7.5 and room temperature; conditions: pH 7.5, room temperature, 20 h, clarified E. coli lysate, QS-18 2150 to QS-21 1988 by LCMS/MS
How it was run: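 Deglycosylation measured by LC-MS/MS as % conversion after 20 h room-temperature incubation of QS-18 phenyl fraction (0.04 mg/ml final) with polymyxin B/lysozyme lysates, pH 7.5 phosphate, of E. coli BL21(DE3) expressing each enzyme; MeCN quench. Positives exceeded negative control by >3 S.D.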

[3] = Experiment 4-2: screening of glucosidases for deglycosylation with purified QS-18 (1 mg/ml) at pH 6 and 30 deg C; conditions: pH 6, 30 degC, 18 hrs, clarified lysate, LCMS/MS
How it was run: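 Enzyme activity derived from LC-MS/MS analysis after MeCN quench. Substrate QS-18 (1 mg/ml final) was exposed overnight (18 h, 30 °C, pH 6 phosphate buffer) to clarified lysates containing candidate glucosidases.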

Molecule	Expt 4-4 % conv [1]	Expt 4-1 % conv [2]	Expt 4-2 % conv [3]
B1	<3%	4.7%	0.5%
B2	<3%	6.3%	0.9%
B3	<3%	9.0%	0.5%
B4	<3%	9.2%	0.9%
B5	<3%	3.7%	0.4%
B6	<3%	6.3%	0.5%
